Reference: ChEMBL document CHEMBL1137898, “Benzopyranones with retro-amide side chains as (inhibitory) beta-lactamase substrates” (Bioorg Med Chem Lett, 2004)

How the values were obtained:
[1] = substrate: CC(=O)OCC1=C(C(=O)O)N2C(=O)[C@@H](NC(=O)Cc3cccs3)[C@H]2SC1; assay: (§1) Km for OXA-1 beta-lactamase hydrolysis
[2] = substrate: O=C(O)c1cccc2c1OC(=O)C(C(=O)NCc1ccccc1)C2; assay: as §1
[3] = substrate: O=C(Cc1ccccc1)NC1Cc2cccc(C(=O)O)c2OC1=O; assay: as §1
[4] = substrate: CC(=O)OCC1=C(C(=O)O)N2C(=O)[C@@H](NC(=O)Cc3cccs3)[C@H]2SC1; assay: (§2) Km for Enterobacter cloacae P99 Beta-lactamase hydrolysis
[5] = substrate: O=C(O)c1cccc2c1OC(=O)C(C(=O)NCc1ccccc1)C2; assay: as §2
[6] = substrate: O=C(Cc1ccccc1)NC1Cc2ccc(C(=O)O)cc2OC1=O; assay: as §2
[7] = substrate: O=C(Cc1ccccc1)NC1Cc2cccc(C(=O)O)c2OC1=O; assay: as §2
[8] = substrate: O=C(O)c1ccc2c(c1)OC(=O)C(C(=O)NCc1ccccc1)C2; assay: as §2
[9] = substrate: O=C(O)c1cccc2c1OC(=O)C(C(=O)NCc1ccccc1)C2; assay: (§3) Km for TEM-2 beta-lactamase hydrolysis
[10] = substrate: O=C(Cc1ccccc1)NC1Cc2ccc(C(=O)O)cc2OC1=O; assay: as §3
[11] = substrate: O=C(Cc1ccccc1)NC1Cc2cccc(C(=O)O)c2OC1=O; assay: as §3
[12] = substrate: O=C(O)c1ccc2c(c1)OC(=O)C(C(=O)NCc1ccccc1)C2; assay: as §3
[13] = substrate: CC(=O)OCC1=C(C(=O)O)N2C(=O)[C@@H](NC(=O)Cc3cccs3)[C@H]2SC1; assay: (§4) Km for Staphylococcus aureus PC1 Beta-lactamase hydrolysis
[14] = substrate: O=C(O)c1cccc2c1OC(=O)C(C(=O)NCc1ccccc1)C2; assay: as §4
[15] = substrate: O=C(Cc1ccccc1)NC1Cc2cccc(C(=O)O)c2OC1=O; assay: as §4
[16] = substrate: O=C(O)c1ccc2c(c1)OC(=O)C(C(=O)NCc1ccccc1)C2; assay: as §4

B1: Beta-lactamase OXA-1 (Escherichia coli), P13661 (protein)
chain: MKNTIHINFAIFLIIANIIYSSASASTDISTVASPLFEGTEGCFLLYDASTNAEIAQFNKAKCATQMAPDSTFKIALSLMAFDAEIIDQKTIFKWDKTPKGMEIWNSNHTPKTWMQFSVVWVSQEITQKIGLNKIKNYLKDFDYGNQDFSGDKERNNGLTEAWLESSLKISPEEQIQFLRKIINHNLPVKNSAIENTIENMYLQDLDNSTKLYGKTGAGFTANRTLQNGWFEGFIISKSGHKYVFVSALTGNLGSNLTSSIKAKKNAITILNTLNL
- Km [1]: 10 µM
- Km [2]: 7.4 µM
- Km [3]: 13.9 µM

B2: Beta-lactamase (Enterobacter cloacae), P05364 (protein)
chain: MMRKSLCCALLLGISCSALATPVSEKQLAEVVANTITPLMKAQSVPGMAVAVIYQGKPHYYTFGKADIAANKPVTPQTLFELGSISKTFTGVLGGDAIARGEISLDDAVTRYWPQLTGKQWQGIRMLDLATYTAGGLPLQVPDEVTDNASLLRFYQNWQPQWKPGTTRLYANASIGLFGALAVKPSGMPYEQAMTTRVLKPLKLDHTWINVPKAEEAHYAWGYRDGKAVRVSPGMLDAQAYGVKTNVQDMANWVMANMAPENVADASLKQGIALAQSRYWRIGSMYQGLGWEMLNWPVEANTVVEGSDSKVALAPLPVAEVNPPAPPVKASWVHKTGSTGGFGSYVAFIPEKQIGIVMLANTSYPNPARVEAAYHILEALQ
- Km [4]: 9 µM
- Km [5]: 0.2 µM
- Km [6]: 290 µM
- Km [7]: 620 µM
- Km [8]: 430 µM

B3: Beta-lactamase TEM (Escherichia coli), P62593 (protein)
chain: MSIQHFRVALIPFFAAFCLPVFAHPETLVKVKDAEDQLGARVGYIELDLNSGKILESFRPEERFPMMSTFKVLLCGAVLSRVDAGQEQLGRRIHYSQNDLVEYSPVTEKHLTDGMTVRELCSAAITMSDNTAANLLLTTIGGPKELTAFLHNMGDHVTRLDRWEPELNEAIPNDERDTTMPAAMATTLRKLLTGELLTLASRQQLIDWMEADKVAGPLLRSALPAGWFIADKSGAGERGSRGIIAALGPDGKPSRIVVIYTTGSQATMDERNRQIAEIGASLIKHW
- Km [9]: 290 µM
- Km [10]: > 1200 µM
- Km [11]: 50 µM
- Km [12]: > 200 µM

B4: Beta-lactamase (Staphylococcus aureus), P00807 (protein)
chain: MKKLIFLIVIALVLSACNSNSSHAKELNDLEKKYNAHIGVYALDTKSGKEVKFNSDKRFAYASTSKAINSAILLEQVPYNKLNKKVHINKDDIVAYSPILEKYVGKDITLKALIEASMTYSDNTANNKIIKEIGGIKKVKQRLKELGDKVTNPVRYEIELNYYSPKSKKDTSTPAAFGKTLNKLIANGKLSKENKKFLLDLMLNNKSGDTLIKDGVPKDYKVADKSGQAITYASRNDVAFVYPKGQSEPIVLVIFTNKDNKSDKPNDKLISETAKSVMKEF
- Km [13]: 1 µM
- Km [14]: 1.8 µM
- Km [15]: 0.3 µM
- Km [16]: > 200 µM
